Measured values from patent US20190060404A1 (published 2019).
Blank lines part the entries; values can stand above or below the molecule they belong to.

What was measured:
human FGFR2-Fc (human) = human FGFR2-Fc (human) (UniProt P21802); assay: SPR, FGFR2-Fc fixed on the sensor, VEGF-B167 added
FGFR1-Fc = FGFR1-Fc (UniProt P11362); assay: SPR, FGFR1-Fc fixed on the sensor, VEGF-B167 added
[1] = molecular target: T1, VEGFR2 of C57B16 mouse retina and brain tissue (mouse, UniProt P35918 20-1345, limits assumed); assay: co-immunoprecipitation with anti-FGFR1 antibody from mouse retina and brain tissue
T1 construct: Endogenous protein in tissue lysate
Protocol: (§1) Co-immunoprecipitation assay: brain tissues and retinae of the C57B16 mice were separated, and were homogenated after added with RIPA buffer comprising protease and phosphatase inhibitor. Supernatant was obtained by centrifuging. After protein quantification, the supernatant was incubated with anti-FGFR1 antibody at 4° C. overnight. Magnetic beads combined with A/G protein were added to capture the antibody complex. 10% PAGE electrophoresis and transfer to a PVDF film were performed successively for the complex, then the complex was incubated with the primary antibody of VEGFR1, VEGFR2 or FGFR1, and was further incubated with HRP-labeled secondary antibody, ECL luminescence reagent was added to display color in the end.

[2] = molecular target: T1, VEGFR2 of C57B16 mouse retina and brain …; assay: co-immunoprecipitation with anti-FGFR2 antibody from mouse brain and retinal tissue
Protocol: as §1
Co-Immunoprecipitation: brain tissue and retinae were extracted from the C57B16 mice. The C57B16 mice were intravitreally injected with BSA (500 ng/eye), FGF2 (100 ng/eye) or VEGF-B₁₆₇ (500 ng/eye), and their retinae were extracted 1 hour after the injection. The brain tissue and retinae, and the retinae from the injected C57B16 mice were treated by the operational procedure described in Embodiment 5, and incubated with anti-FGFR2 antibody for co-immunoprecipitation (with VEGFR1 or VEGFR2).

T1 sequence (P35918 20-1345 limits assumed, one chain of several): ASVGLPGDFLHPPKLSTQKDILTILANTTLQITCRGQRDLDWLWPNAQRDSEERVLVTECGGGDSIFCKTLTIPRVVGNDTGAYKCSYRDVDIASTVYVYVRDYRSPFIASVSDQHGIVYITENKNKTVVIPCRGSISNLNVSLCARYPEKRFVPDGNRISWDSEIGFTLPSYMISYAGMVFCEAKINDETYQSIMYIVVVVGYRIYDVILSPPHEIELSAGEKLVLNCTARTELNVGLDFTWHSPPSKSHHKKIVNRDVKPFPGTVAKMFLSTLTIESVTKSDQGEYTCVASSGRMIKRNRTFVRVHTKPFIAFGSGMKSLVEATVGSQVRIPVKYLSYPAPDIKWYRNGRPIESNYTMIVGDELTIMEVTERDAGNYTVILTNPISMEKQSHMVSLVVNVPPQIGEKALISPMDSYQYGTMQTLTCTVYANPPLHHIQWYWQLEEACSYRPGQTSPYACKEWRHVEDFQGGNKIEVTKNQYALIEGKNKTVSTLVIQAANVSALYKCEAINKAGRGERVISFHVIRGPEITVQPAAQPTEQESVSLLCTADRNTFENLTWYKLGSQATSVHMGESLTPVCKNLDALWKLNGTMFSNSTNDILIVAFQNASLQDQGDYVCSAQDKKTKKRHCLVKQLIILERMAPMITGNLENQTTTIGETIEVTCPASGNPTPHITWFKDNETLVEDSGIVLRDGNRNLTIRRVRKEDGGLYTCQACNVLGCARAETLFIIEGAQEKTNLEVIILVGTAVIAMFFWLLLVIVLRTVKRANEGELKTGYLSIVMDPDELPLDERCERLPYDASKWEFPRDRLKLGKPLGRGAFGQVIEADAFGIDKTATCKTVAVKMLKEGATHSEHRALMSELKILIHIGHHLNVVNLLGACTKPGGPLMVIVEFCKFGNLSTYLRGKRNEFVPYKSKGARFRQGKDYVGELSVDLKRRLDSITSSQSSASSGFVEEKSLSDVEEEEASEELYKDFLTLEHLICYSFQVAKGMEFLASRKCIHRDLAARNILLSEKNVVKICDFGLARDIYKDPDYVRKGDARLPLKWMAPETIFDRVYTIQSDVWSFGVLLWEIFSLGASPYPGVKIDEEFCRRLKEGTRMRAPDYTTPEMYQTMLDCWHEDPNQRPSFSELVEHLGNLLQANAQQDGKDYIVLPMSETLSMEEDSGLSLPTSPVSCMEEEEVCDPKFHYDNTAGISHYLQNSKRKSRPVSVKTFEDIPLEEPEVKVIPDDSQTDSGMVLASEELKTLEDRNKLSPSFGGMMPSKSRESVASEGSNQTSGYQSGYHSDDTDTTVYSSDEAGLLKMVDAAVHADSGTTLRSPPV
Sequence of FGFR1-Fc (P11362 22-376 limits assumed): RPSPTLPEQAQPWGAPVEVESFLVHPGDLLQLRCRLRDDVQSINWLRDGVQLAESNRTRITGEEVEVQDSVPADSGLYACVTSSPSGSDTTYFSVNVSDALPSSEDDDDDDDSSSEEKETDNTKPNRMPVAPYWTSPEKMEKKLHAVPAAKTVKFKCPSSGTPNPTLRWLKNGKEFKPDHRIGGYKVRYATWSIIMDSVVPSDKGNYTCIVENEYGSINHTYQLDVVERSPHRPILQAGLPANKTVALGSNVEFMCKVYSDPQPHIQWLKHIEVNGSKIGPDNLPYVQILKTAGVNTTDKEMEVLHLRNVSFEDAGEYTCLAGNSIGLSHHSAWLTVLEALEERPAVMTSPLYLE

Kd (human FGFR2-Fc (human)): 112 nM | Kd (FGFR1-Fc): 15 nM
Molecule: VEGF-B167 (from UniProt P49765 22-207) (ligand)

binding result [1]: no binding
B1: FGFR1 of C57B16 mouse retina and brain tissue (receptor, UniProt P16092 22-822, looked up)
chain: RPAPTLPEQAQPWGVPVEVESLLVHPGDLLQLRCRLRDDVQSINWLRDGVQLVESNRTRITGEEVEVRDSIPADSGLYACVTSSPSGSDTTYFSVNVSDALPSSEDDDDDDDSSSEEKETDNTKPNRRPVAPYWTSPEKMEKKLHAVPAAKTVKFKCPSSGTPNPTLRWLKNGKEFKPDHRIGGYKVRYATWSIIMDSVVPSDKGNYTCIVENEYGSINHTYQLDVVERSPHRPILQAGLPANKTVALGSNVEFMCKVYSDPQPHIQWLKHIEVNGSKIGPDNLPYVQILKTAGVNTTDKEMEVLHLRNVSFEDAGEYTCLAGNSIGLSHHSAWLTVLEALEERPAVMTSPLYLEIIIYCTGAFLISCMLGSVIIYKMKSGTKKSDFHSQMAVHKLAKSIPLRRQVTVSADSSASMNSGVLLVRPSRLSSSGTPMLAGVSEYELPEDPRWELPRDRLVLGKPLGEGCFGQVVLAEAIGLDKDKPNRVTKVAVKMLKSDATEKDLSDLISEMEMMKMIGKHKNIINLLGACTQDGPLYVIVEYASKGNLREYLQARRPPGLEYCYNPSHNPEEQLSSKDLVSCAYQVARGMEYLASKKCIHRDLAARNVLVTEDNVMKIADFGLARDIHHIDYYKKTTNGRLPVKWMAPEALFDRIYTHQSDVWSFGVLLWEIFTLGGSPYPGVPVEELFKLLKEGHRMDKPSNCTNELYMMMRDCWHAVPSQRPTFKQLVEDLDRIVALTSNQEYLDLSIPLDQYSPSFPDTRSSTCSSGEDSVFSHEPLPEEPCLPRHPTQLANSGLKRR
notes: Endogenous protein in tissue lysate

binding result [2]: no binding
B2: FGFR2 of C57B16 mouse tissue and mouse primary SMC (receptor, UniProt P21803 22-821, looked up)
chain: RPSFSLVEDTTLEPEEPPTKYQISQPEAYVVAPGESLELQCMLKDAAVISWTKDGVHLGPNNRTVLIGEYLQIKGATPRDSGLYACTAARTVDSETWIFMVNVTDAISSGDDEDDTDSSEDVVSENRSNQRAPYWTNTEKMEKRLHACPAANTVKFRCPAGGNPTSTMRWLKNGKEFKQEHRIGGYKVRNQHWSLIMESVVPSDKGNYTCLVENEYGSINHTYHLDVVERSPHRPILQAGLPANASTVVGGDVEFVCKVYSDAQPHIQWIKHVEKNGSKNGPDGLPYLKVLKAAGVNTTDKEIEVLYIRNVTFEDAGEYTCLAGNSIGISFHSAWLTVLPAPVREKEITASPDYLEIAIYCIGVFLIACMVVTVIFCRMKTTTKKPDFSSQPAVHKLTKRIPLRRQVTVSAESSSSMNSNTPLVRITTRLSSTADTPMLAGVSEYELPEDPKWEFPRDKLTLGKPLGEGCFGQVVMAEAVGIDKDKPKEAVTVAVKMLKDDATEKDLSDLVSEMEMMKMIGKHKNIINLLGACTQDGPLYVIVEYASKGNLREYLRARRPPGMEYSYDINRVPEEQMTFKDLVSCTYQLARGMEYLASQKCIHRDLAARNVLVTENNVMKIADFGLARDINNIDYYKKTTNGRLPVKWMAPEALFDRVYTHQSDVWSFGVLMWEIFTLGGSPYPGIPVEELFKLLKEGHRMDKPTNCTNELYMMMRDCWHAVPSQRPTFKQLVEDLDRILTLTTNEEYLDLTQPLEQYSPSYPDTSSSCSSGDDSVFSPDPMPYEPCLPQYPHINGSVKT
notes: Endogenous protein in tissue lysate (co-immunoprecipitation) or on cells (proximity ligation assay)
